{"source": "paper PMC4355285", "key": {"human CCL18 (human) [1]": {"biological_target": "human CCL18 (human) (UniProt P55774)", "assay": "SAXS"}, "human CCL18 (human) [2]": {"biological_target": "human CCL18 (human) (UniProt P55774)", "assay": "SAXS", "remark": "listed apart in the source"}}, "note": "Where two headings read alike, the source gives them in different places."}
{"substance": "human CCL18 (from UniProt P55774 21-89) (natural protein)", "values": [{"measurement": "percent of the population as dimer", "setting": "human CCL18 (human) [1]", "result": 32, "unit": "%"}, {"measurement": "percent of the population as monomer", "setting": "human CCL18 (human) [1]", "result": 65, "unit": "%"}, {"measurement": "percent of the population as tetramer", "setting": "human CCL18 (human) [1]", "result": 3, "unit": "%"}, {"measurement": "percent of the population as dimer", "setting": "human CCL18 (human) [2]", "result": 28, "unit": "%"}, {"measurement": "percent of the population as hexamer", "setting": "human CCL18 (human) [2]", "result": 24, "unit": "%"}, {"measurement": "percent of the population as monomer", "setting": "human CCL18 (human) [2]", "result": 48, "unit": "%"}]}
